Measured values taken from patent publication US20060257938A1, “Method of screening for drugs that block ligand binding to a lipid binding protein” (priority 2005, published 2006).
Where “and” joins values, the source holds several entries; their conditions need not be identical. Equal entries are not always repeated.

Tests used:
ADIFAB = molecular target: T1, ADIFAB (Rattus norvegicus, UniProt P02693); experiment: ADIFAB screening assay in 96-well plates (emission ratio 505/432); format: binding
T1 construct: purchased FFA Sciences LLC, San Diego, Calif
T1 sequence (P02693 2-132): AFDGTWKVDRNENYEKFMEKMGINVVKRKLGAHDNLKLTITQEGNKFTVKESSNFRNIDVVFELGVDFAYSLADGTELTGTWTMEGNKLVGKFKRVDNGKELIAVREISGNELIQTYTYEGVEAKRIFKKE
Description: In a preferred embodiment, the probe is a fatty acid binding protein (FABP), more preferably a recombinant rat intestinal fatty acid binding protein (rI-FABP), which has been derivatized with acrylodan. DNA and protein sequences for Fatty Acid Binding Proteins (FABPs) are shown in the sequence listing. […] The rat fatty acid binding protein is post-translationally modified in the rat, with the modifications including the removal of the N-terminal methionine and the acetylation of the “new” N-terminal residue Ala. Protein sequences are numbered starting with the first residue of the mature protein. Thus, Ala is residue 1 in the corresponding protein shown as SEQ ID NO: 2. […]
Five identical 96-well plates were prepared with 0.5 μM ADIFAB and 1% dimethyl sulfoxide in 200 μL aqueous buffer (20 mM HEPES, 140 mM NaCl, 5 mM KCl, 1 mM Na2HPO4, pH 7.4) to test assay reproducibility, precision, and quality. Wells were excited at 386 nm and the emission detected at 432 and 505 nm with a fluorescence plate reader connected via fiber optic cables to a standard Spex spectrofluorometer. The emission ratio (505/432), which determines the amount of bound […], was calculated for each well. A positive control (4 μM sodium oleate (OA)) was added to each well and the ratio was measured again. […] The Z′-factor, as defined below, provides a quantitative assessment of the assay [Zhang, J., et al J. Biomol. […]

[1] = Binding affinities of ADIFAB2 compared with ADIFAB; conditions: greater than ADIFAB
Description: ADIFAB2 also has an altered spectral response, making it especially useful for measurements of FFAu in blood samples (Apple et al, Clinical Proteomics, (2004) 1:41-44, U.S. patent application Ser. No. 10/670,958). The wavelengths at the maximum intensities emitted by these fluorescently-labeled I-FABP's in the absence of FFA is about 420 to 480 nm. The emission wavelengths at the maximum intensities emitted by these fluorescently-labeled I-FABP's with FFA bound are between about 495 to 580 nm. Experiments typically involve measuring the fluorescence response within both emission maxima or at wavelengths for which the effect of interfering molecules such as hemoglobin can be eliminated as described in U.S. application Ser. No. 10/670958 and PCT/US2004/030521 and the calculation of the ratio ‘R’ of the two fluorescence intensities. The baseline value for this ratio, measured in the absence of analyte, is designated R0.

[2] = Probe fluorescence intensity change with UCB:BSA; format: binding

## CCCCCCCC/C=C\CCCCCCCC(=O)[O-].[Na+] [OA, sodium oleate]
ADIFAB; 4 μM OA, 0.5 μM ADIFAB, 1% dimethyl sulfoxide, one value per plate 1-5
  ρc+ average ratio (505/432), Positive Control (+OA): 1.77 and 1.84 and 1.81 and 1.68 and 1.83
ADIFAB; 4 μM oleate, positive control
  ΔR: 1.8

B1: ADIFAB2: acrylodan-derivatized rI-FABP with Ala substituted for Leu at position 72 (rI-FABP-L72A), SEQ ID NO: 4 (protein, listed as Rattus norvegicus)
chain: AFDGTWKVDRNENYEKFMEKMGINVVKRKLGAHDNLKLTITQEGNKFTVKESSNFRNIDVVFELGVDFAYSAADGTELTGTWTMEGNKLVGKFKRVDNGKELIAVREISGNELIQTYTYEGVEAKRIFKKDRGHHHHHH
modifications: acrylodan label; MUTAGEN (72)...(72) rat intestinal fatty acid binding protein with alanine substitution for leucine at position 72
[1]
  binding affinities relative to ADIFAB: about 10 fold
[2]; 1:1 UCB:BSA, 440 nm
  ΔI/Io 1:1 UCB:BSA 440 nm: −0.40
[2]; 1:1 UCB:BSA, 500 nm
  ΔI/Io 1:1 UCB:BSA 500 nm: −0.34
[2]; 1:2 UCB:BSA, 440 nm
  ΔI/Io 1:2 UCB:BSA 440 nm: −0.19
[2]; 1:2 UCB:BSA, 500 nm
  ΔI/Io 1:2 UCB:BSA 500 nm: −0.16
